Experimental data from US20220025056A1 (INNATE PHARMA, published 2022).
Like-named read-outs stand apart in the source and are kept apart here.

Assays:
[1] = molecular target: T1, anchored ILT2 D4 domain protein (human, UniProt Q8NHL6 322-650); assay: flow cytometry on CHO cells expressing the anchored ILT2 D4 domain protein (SEQ ID NO: 49); stacked histograms, axis without numbers
T1 construct: on CHO cells; the entry includes leader remnant, V5 tag, and the ILT2 transmembrane and cytoplasmic parts

[2] = molecular target: T2, anchored ILT2 D3 domain protein (human); assay: flow cytometry on CHO cells expressing the anchored ILT2 D3 domain protein (SEQ ID NO: 48); stacked histograms, axis without numbers, no control histogram
T2 construct: on CHO cells; the entry includes leader remnant, V5 tag and CD24 GPI anchor signal
T2 sequence (chain, as listed by the source limits assumed): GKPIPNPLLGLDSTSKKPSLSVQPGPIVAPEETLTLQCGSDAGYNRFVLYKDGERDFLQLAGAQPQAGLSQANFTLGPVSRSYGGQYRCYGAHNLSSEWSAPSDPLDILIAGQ

[3] = molecular target: T3, anchored ILT2 D2-D3-D4 domain protein (human, UniProt Q8NHL6 122-650); assay: flow cytometry, CHO cells with anchored ILT2 domain proteins
T3 construct: on CHO cells; the entry includes leader remnant, V5 tag, and the ILT2 transmembrane and cytoplasmic parts

[4] = molecular target: T4, anchored ILT2 D2-D3 domain protein (human, UniProt Q8NHL6 122-321); assay: as above
T4 construct: on CHO cells; the entry includes leader remnant, V5 tag and CD24 GPI anchor signal

[5] = molecular target: T5, anchored ILT2 D3-D4 domain protein (human, UniProt Q8NHL6 223-650); assay: as above
T5 construct: on CHO cells; the entry includes leader remnant, V5 tag, and the ILT2 transmembrane and cytoplasmic parts

[6] = molecular target: T6, anchored ILT2 D2 domain protein (human); assay: as above
T6 construct: on CHO cells; the entry includes leader remnant, V5 tag and CD24 GPI anchor signal
T6 sequence (chain, as listed by the source limits assumed): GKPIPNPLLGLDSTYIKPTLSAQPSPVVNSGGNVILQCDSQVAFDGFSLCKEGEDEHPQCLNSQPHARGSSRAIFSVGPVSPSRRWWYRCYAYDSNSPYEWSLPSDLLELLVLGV

[7] = molecular target: T7, ILT-2_6xHis recombinant protein (human, UniProt Q8NHL6 24-458); assay: SPR, antibody captured on Protein-A, soluble ILT2 analyte; two state fit
T7 construct: monomers purified by SEC; also called recombinant 6xHIS tagged ILT2; recombinant human ILT2 proteins
T7 sequence (Q8NHL6 other isoform, or with tags, fused parts or gaps limits assumed): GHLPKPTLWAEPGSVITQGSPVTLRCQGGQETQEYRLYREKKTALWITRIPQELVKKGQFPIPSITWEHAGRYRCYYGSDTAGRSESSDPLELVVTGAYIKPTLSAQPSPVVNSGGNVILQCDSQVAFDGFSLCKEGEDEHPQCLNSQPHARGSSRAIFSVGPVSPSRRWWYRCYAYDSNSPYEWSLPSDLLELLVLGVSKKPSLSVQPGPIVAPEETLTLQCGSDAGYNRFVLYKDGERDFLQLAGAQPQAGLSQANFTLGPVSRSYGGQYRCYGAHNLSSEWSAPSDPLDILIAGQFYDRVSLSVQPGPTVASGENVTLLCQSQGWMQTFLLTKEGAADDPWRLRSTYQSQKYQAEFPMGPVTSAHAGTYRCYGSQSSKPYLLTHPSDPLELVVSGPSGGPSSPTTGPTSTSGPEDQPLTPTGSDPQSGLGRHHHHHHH
Procedure: Measurements were performed on a Biacore T200 apparatus (Biacore GE Healthcare) at 25° C. In all Biacore experiments HBS-EP+(Biacore GE Healthcare) and NaOH 10 mM served as running buffer and regeneration buffer respectively. Sensorgrams were analyzed with Biacore T100 Evaluation software. Protein-A was purchased from (GE Healthcare). Human ILT2 recombinant proteins were cloned, produced and purified at Innate Pharma. Protein-A proteins were immobilized covalently to carboxyl groups in the dextran layer on a Sensor Chip CM5. The chip surface was activated with EDC/NHS (N-ethyl-N′-(3-dimethylaminopropyl) carbodiimidehydrochloride and N-hydroxysuccinimide (Biacore GE Healthcare)). Protein-A was diluted to 10 μg/ml in coupling buffer (10 mM acetate, pH 5.6) and injected until the appropriate immobilization level was reached (i.e. 600 RU). Deactivation of the remaining activated groups was performed using 100 mM ethanolamine pH 8 (Biacore GE Healthcare). […] For blank subtraction, cycles were performed again replacing ILT2 proteins with running buffer. The monovalent affinity analysis was conducted following a regular Capture-Kinetic protocol as recommended by the manufacturer (Biacore GE Healthcare kinetic wizard). […]

ILT2 mutant 2 = molecular target: T8, ILT2 mutant 2 (human, UniProt Q8NHL6 24-650); assay: flow cytometry titration on HEK293T cells transfected with ILT2 mutant 2
T8 construct: transfected in HEK293T cells; also called M2

[8] = molecular target: T9, human ILT2 (LILRB1) expressed at the surface of transfected cells (human, UniProt Q8NHL6 24-650); assay: flow cytometry, CHO-ILT2 cells
T9 construct: also called CHO-ILT2; CHO ILT2 cell line
T9 sequence (Q8NHL6 24-650): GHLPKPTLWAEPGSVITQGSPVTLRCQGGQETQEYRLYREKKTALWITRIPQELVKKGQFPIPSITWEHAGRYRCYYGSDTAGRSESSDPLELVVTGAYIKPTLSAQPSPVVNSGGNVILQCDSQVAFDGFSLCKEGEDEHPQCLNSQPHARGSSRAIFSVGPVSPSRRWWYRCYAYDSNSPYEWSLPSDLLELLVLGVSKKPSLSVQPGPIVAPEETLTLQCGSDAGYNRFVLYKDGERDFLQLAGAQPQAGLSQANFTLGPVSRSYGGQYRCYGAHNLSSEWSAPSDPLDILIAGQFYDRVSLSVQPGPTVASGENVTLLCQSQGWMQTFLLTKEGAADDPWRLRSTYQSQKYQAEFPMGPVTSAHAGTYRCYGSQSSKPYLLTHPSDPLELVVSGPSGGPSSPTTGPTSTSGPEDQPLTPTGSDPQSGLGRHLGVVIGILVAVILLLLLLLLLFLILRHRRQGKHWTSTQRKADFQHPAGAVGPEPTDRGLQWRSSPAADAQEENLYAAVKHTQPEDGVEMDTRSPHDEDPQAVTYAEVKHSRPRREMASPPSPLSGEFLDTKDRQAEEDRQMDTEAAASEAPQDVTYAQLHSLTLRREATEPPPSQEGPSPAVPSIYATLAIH
Procedure: Cells were incubated with various concentrations of unlabeled anti-ILT2 antibodies from 30 μg/ml to 5×10-⁴ μg/ml, for 30 minutes at 4° C. After washes with staining buffer, cells were incubated for 30 min at 4° C. with Goat anti-human H+L AF488 secondary antibody (Jackson Immunoresearch #109-546-088) or Goat anti-mouse H+L AF488 secondary antibody for commercially available antibodies (Jackson Immuoresearch #115-545-146). Fluorescence was measured on an Accury C6 flow cytometer equipped with an HTFC plate loader.

[9] = molecular target: T10, human ILT3 (LILRB4) on CHO cells (human, UniProt Q8NHJ6 24-443); assay: flow cytometry, CHO transfectants
T10 construct: also called CHO ILT3 cell line
T10 sequence (Q8NHJ6 other isoform, or with tags, fused parts or gaps): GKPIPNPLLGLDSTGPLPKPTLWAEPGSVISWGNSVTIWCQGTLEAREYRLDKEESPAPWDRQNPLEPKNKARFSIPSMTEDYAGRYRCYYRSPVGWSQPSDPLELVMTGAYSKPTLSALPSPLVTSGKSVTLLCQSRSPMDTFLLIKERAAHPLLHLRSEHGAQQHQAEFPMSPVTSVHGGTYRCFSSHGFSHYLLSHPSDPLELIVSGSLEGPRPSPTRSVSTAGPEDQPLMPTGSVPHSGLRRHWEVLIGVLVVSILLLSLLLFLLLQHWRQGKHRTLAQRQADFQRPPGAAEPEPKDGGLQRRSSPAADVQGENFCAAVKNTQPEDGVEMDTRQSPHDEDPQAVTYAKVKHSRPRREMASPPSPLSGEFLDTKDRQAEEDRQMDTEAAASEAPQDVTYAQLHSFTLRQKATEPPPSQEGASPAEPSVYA

[10] = molecular target: T11, human ILT7 (LILRA4) on CHO cells (human, UniProt P59901 28-494); assay: flow cytometry, CHO transfectants
T11 construct: also called CHO ILT7 cell line
T11 sequence (P59901 other isoform, or with tags, fused parts or gaps): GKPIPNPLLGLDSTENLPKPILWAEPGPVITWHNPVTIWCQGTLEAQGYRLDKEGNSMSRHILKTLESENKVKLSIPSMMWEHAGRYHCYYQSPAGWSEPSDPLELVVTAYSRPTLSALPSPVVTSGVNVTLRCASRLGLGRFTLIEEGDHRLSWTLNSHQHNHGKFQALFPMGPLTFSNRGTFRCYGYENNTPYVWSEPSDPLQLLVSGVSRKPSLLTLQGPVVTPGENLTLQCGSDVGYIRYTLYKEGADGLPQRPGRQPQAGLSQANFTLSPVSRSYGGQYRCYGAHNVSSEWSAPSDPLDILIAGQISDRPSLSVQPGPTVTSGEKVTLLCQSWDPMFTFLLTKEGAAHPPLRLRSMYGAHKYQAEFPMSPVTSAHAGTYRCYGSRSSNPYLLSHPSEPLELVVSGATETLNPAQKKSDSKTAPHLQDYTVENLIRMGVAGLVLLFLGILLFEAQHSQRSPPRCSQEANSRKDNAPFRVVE

[11] = molecular target: T12, human ILT4 (LILRB2) on CHO cells (human, UniProt Q8N423 23-597); assay: flow cytometry, CHO transfectants
T12 construct: also called CHO ILT4 cell line
T12 sequence (Q8N423 other isoform, or with tags, fused parts or gaps): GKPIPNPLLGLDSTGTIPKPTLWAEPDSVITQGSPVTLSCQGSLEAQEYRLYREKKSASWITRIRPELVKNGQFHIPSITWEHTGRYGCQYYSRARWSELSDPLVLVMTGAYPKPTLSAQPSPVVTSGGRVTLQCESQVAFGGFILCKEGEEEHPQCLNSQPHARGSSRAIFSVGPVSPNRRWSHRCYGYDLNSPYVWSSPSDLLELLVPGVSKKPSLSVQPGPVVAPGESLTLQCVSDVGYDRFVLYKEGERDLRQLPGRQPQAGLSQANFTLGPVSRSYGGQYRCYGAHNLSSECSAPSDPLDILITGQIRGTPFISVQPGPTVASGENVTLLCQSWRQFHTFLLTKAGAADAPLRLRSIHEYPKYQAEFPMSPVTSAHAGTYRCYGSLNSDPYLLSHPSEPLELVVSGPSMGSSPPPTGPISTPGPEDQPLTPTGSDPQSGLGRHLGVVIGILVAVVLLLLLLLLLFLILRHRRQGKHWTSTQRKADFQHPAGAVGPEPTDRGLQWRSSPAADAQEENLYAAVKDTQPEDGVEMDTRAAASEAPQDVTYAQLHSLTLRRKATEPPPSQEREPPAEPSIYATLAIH

[12] = molecular target: T13, human ILT8 (LILRA6) on CHO cells (human, UniProt Q6PI73 24-477); assay: flow cytometry, CHO transfectants
T13 construct: also called CHO ILT8 cell line
T13 sequence (Q6PI73 other isoform, or with tags, fused parts or gaps): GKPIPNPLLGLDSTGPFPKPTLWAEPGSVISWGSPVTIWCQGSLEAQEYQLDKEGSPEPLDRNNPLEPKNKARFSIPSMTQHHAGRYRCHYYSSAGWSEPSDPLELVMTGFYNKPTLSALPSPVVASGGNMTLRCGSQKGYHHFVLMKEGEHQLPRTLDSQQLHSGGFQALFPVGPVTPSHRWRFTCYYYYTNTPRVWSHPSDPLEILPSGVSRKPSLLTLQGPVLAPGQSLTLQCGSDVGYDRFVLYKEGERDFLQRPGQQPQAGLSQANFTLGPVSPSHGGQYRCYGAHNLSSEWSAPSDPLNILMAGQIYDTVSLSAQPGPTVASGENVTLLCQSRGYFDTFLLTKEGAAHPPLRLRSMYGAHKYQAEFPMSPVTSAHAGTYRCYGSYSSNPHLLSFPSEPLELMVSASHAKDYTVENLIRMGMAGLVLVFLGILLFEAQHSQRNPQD

[13] = molecular target: T14, human ILT6 (LILRA3) on CHO cells (human, UniProt Q8N6C8 24-434); assay: flow cytometry, CHO transfectants
T14 construct: also called CHO ILT6 cell line; human ILT-6 polypeptide
T14 sequence (Q8N6C8 other isoform, or with tags, fused parts or gaps): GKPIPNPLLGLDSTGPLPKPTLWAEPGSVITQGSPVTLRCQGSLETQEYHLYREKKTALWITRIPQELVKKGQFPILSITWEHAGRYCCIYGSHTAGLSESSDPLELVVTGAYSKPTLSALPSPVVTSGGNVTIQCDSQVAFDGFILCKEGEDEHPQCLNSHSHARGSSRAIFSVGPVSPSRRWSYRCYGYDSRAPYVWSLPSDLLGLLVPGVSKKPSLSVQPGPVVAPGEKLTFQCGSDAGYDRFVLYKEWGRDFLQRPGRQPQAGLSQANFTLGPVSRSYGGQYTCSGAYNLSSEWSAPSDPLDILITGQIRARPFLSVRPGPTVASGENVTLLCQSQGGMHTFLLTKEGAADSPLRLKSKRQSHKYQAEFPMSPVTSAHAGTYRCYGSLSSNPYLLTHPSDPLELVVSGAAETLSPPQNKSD

[14] = molecular target: T15, human ILT5 (LILRB3) on CHO cells (human, UniProt O75022 24-626); assay: flow cytometry, CHO transfectants
T15 construct: also called CHO ILT5 cell line
T15 sequence (O75022 other isoform, or with tags, fused parts or gaps): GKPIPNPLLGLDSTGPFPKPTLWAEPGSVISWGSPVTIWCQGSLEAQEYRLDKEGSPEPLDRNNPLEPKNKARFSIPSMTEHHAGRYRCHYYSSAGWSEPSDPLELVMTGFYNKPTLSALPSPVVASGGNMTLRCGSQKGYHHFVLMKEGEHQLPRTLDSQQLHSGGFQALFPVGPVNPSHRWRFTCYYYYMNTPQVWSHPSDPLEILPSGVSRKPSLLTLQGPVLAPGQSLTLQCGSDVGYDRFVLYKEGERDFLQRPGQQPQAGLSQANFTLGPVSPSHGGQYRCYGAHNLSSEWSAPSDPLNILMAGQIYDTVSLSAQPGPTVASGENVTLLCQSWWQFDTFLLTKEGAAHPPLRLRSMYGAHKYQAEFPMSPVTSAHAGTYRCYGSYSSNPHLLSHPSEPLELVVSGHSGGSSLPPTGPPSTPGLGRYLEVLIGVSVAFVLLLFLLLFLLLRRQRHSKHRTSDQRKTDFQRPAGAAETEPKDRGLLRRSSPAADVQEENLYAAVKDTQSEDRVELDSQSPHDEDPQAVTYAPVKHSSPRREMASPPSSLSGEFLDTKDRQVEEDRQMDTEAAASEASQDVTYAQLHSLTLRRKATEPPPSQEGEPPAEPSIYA

[15] = molecular target: T16, human ILT1 (LILRA2) on CHO cells (human, UniProt Q8N149 24-475); assay: flow cytometry, CHO transfectants
T16 construct: also called CHO ILT1 cell line

[16] = molecular target: T17, human ILT2 on primary NK cells (human, UniProt Q8NHL6 24-650); assay: flow cytometry, primary NK cells
T17 construct: whole, on cells
T17 sequence (Q8NHL6 24-650): as the sequence (Q8NHL6 24-650) above

[17] = molecular target: T9, human ILT2 (LILRB1) expressed at the …; assay: flow cytometry titration on HEK293T cells transfected with wild-type ILT2
ILT2 mutant 1 = molecular target: T18, ILT2 mutant 1 (human, UniProt Q8NHL6 24-650); assay: flow cytometry titration on HEK293T cells transfected with ILT2 mutant 1
T18 construct: transfected in HEK293T cells; also called M1

[18] = molecular target: T7, ILT-2_6xHis recombinant protein; assay: SPR, antibody captured on Protein-A, soluble ILT2 analyte
Procedure: Measurements were performed on a Biacore T200 apparatus (Biacore GE Healthcare) at 25° C. In all Biacore experiments HBS-EP+(Biacore GE Healthcare) and NaOH 10 mM served as running buffer and regeneration buffer respectively. Sensorgrams were analyzed with Biacore T100 Evaluation software. Protein-A was purchased from (GE Healthcare). Human ILT2 recombinant proteins were cloned, produced and purified at Innate Pharma. Protein-A proteins were immobilized covalently to carboxyl groups in the dextran layer on a Sensor Chip CM5. The chip surface was activated with EDC/NHS (N-ethyl-N′-(3-dimethylaminopropyl) carbodiimidehydrochloride and N-hydroxysuccinimide (Biacore GE Healthcare)). Protein-A was diluted to 10 μg/ml in coupling buffer (10 mM acetate, pH 5.6) and injected until the appropriate immobilization level was reached (i.e. 600 RU). Deactivation of the remaining activated groups was performed using 100 mM ethanolamine pH 8 (Biacore GE Healthcare). […] For blank subtraction, cycles were performed again replacing ILT2 proteins with running buffer. The monovalent affinity analysis was conducted following a regular Capture-Kinetic protocol as recommended by the manufacturer (Biacore GE Healthcare kinetic wizard). Seven serial dilutions of human ILT2 proteins, ranging from 1.95 nM to 250 nM were sequentially injected over the captured antibodies and allowed to dissociate for 10 min before regeneration. The entire sensorgram sets were fitted using the 1:1 kinetic binding model or two state reaction model, as a function of the profile of the curves.

Mutant D4-1B = molecular target: T19, Mutant D4-1B; assay: flow cytometry titration on HEK293T cells transfected with ILT2 mutant 4-1b
T19 construct: read as S304F; also called ILT2 mutant 4-1b; mutant 4-1b

[19] = molecular target: T20, anchored ILT2 D1-D2 domain protein (human, UniProt Q8NHL6 24-222); assay: flow cytometry, CHO cells with anchored ILT2 domain proteins
T20 construct: on CHO cells; the entry includes leader remnant, V5 tag and CD24 GPI anchor signal

[20] = molecular target: T21, anchored ILT2 D1-D2-D3 domain protein (human, UniProt Q8NHL6 24-321); assay: as above
T21 construct: on CHO cells; the entry includes leader remnant, V5 tag and CD24 GPI anchor signal

ILT2 mutant 4-2 = molecular target: T22, ILT2 mutant 4-2 (human, UniProt Q8NHL6 24-650); assay: flow cytometry titration on HEK293T cells transfected with ILT2 mutant 4-2
T22 construct: transfected in HEK293T cells

[21] = molecular target: T23, anchored ILT2 D1 domain protein (human); assay: flow cytometry on CHO cells expressing the anchored ILT2 D1 domain protein (SEQ ID NO: 46); stacked histograms, axis without numbers
T23 construct: on CHO cells; the entry includes leader remnant, V5 tag and CD24 GPI anchor signal

ILT2 mutant 4-1 = molecular target: T24, ILT2 mutant 4-1 (human, UniProt Q8NHL6 24-650); assay: flow cytometry titration on HEK293T cells transfected with ILT2 mutant 4-1
T24 construct: transfected in HEK293T cells

Mutant D4-4 = molecular target: T25, Mutant D4-4; assay: flow cytometry titration on HEK293T cells transfected with ILT2 mutant 4-4
T25 construct: also called ILT2 mutant 4-4; mutant 4-4

[22] = molecular target: T9, human ILT2 (LILRB1) expressed at the …; assay: flow cytometry titration on HEK293T cells transfected with wild-type ILT2; remark: listed apart in the source
[23] = molecular target: T17, human ILT2 on primary NK cells; assay: cell-based or functional assay

Row | Binder | binding result [1] | binding result [2] | binding result [3] | binding result [4] | binding result [5] | binding result [6] | Kd [7] [nM] | binding result (ILT2 mutant 2) | EC50 [8] [µg/mL] | binding result [9] | binding result [10] | binding result [11] | binding result [12] | binding result [13] | binding result [14] | binding result [15] | EC50 [16] [µg/mL] | binding result (ILT2 mutant 1) | koff [18] [s⁻¹] | binding result (Mutant D4-1B) | also measured
1 | 3H5 (antibody, human IgG1, V domains shown) VH: QVQLKESGPGLVAPSQSLSITCTVSGFSLTSYGVSWVRQPPGKGLEWLGVIWGDGSTNYHSALISRLSISKDNSKSQVFLKLNSLQTDDTATYYCAKPRWDDYAMDYWGQGTSVTVSS VL: DIQMTQTTSSLSASLGDRVTISCRASQDISNYLNWYQQKPDGTVKLLIYYTSRLHSGVPSRFSGSGSGTDYSLTISNLEQEDIATYFCQQGNTLWTFGGGTKLEIK | no binding | no binding | no binding | no binding | no binding | no binding | 4.4 | no binding (tested: about 20 µg/ml) | 0.35 | no binding | no binding | no binding | no binding | no binding | no binding | no binding | 0.48 | binds | – | – | EC50 (read off the curve) [17]: ~0.9 µg/mL
2 | 27C10 (antibody, human IgG1, V domains shown) VH: EVQLQESGPGLVKPSQSLSLTCSVTGYSITSGYYWNWIRQFPENKLEWMGYIRYDGSNNYNPSLNNRISITRDASKNQFFLKLNSVTTEDTATYYCARGWLLWFYAVDYWGQGTSVTVSS VL: DVVMTQTPLSLPVSLGDQASISCRSSQSIVHTNGNTYLEWYLQKSGQSPKLLIYKVSNRLSGVPDRFSGSGSGTDFTLKISRVEAEDLGIYYCFQGSHVPWTFGGGTKLEIK | – | no binding | – | no binding | – | no binding | – | – | 0.25 | no binding | no binding | no binding | no binding | no binding | no binding | no binding | 0.33 | – | 0.0003 | binds | binding result [19]: no binding; binding result [20]: no binding; binding result (ILT2 mutant 4-2): binds; binding result [21]: no binding; EC50 (read off the curve) (ILT2 mutant 4-1): ~0.4 µg/mL; binding result (Mutant D4-4): binds
3 | 27H5 (antibody, human IgG1, V domains shown) VH: QVQLKESGPGLVAPSQSLSITCTVSGFSLTSYGVSWVRQPPGKGLEWLGVIWGDGNTNYHSALISRLSISKDNSKSQVFLKLNSLQTDDTATYYCARTNWDGWFAYWGQGTLVTVSA VL: DIVMTQSHKFMSTSVGDRVSITCKASQDVGTAVAWYQQKPGQSPKLLIYWASTRHTGVPDRFTGSGSGTDFTLTISNVQSEDLADYFCQQYRSYPLGTFGGGTKLEIK | no binding | no binding | no binding | no binding | no binding | no binding | 13.9 | no binding (tested: about 20 µg/ml) | 0.52 | no binding | no binding | no binding | no binding | no binding | no binding | no binding | – | binds | – | – | –
4 | 26D8 (antibody, human IgG1, V domains shown) VH: QVQLQQSGAELVKPGASVKLSCKASGYTFTEHTIHWIKQRSGQGLEWIGWFYPGSGSMKYNEKFKDKATLTADKSSSTVYMELTRLTSEDSAVYFCARHTNWDFDYWGQGTTLTVSS VL: DIVLTQSPASLAVSLGQRATISCKASQSVDYGGDSYMNWYQQKPGQPPKLLIYAASNLESGIPARFSGSGSGTDLTLNIHPVEEDDAAMYYCQQSNEEPWTFGGGTKLEIK | – | no binding | – | no binding | – | no binding | – | – | 0.15 | no binding | no binding | no binding | no binding | no binding | no binding | no binding | 0.11 | – | 0.00022 | binds | Kd [18]: 0.4 nM; kon [18]: 620000 M⁻¹ s⁻¹; EC50 (read off the curve) [22]: ~0.3 µg/mL; binding result [19]: no binding; binding result [20]: no binding; binding result (ILT2 mutant 4-2): no binding (tested: about 20 µg/ml); binding result [21]: no binding; binding result (ILT2 mutant 4-1): no binding (tested: about 20 µg/ml); EC50 (read off the curve) (Mutant D4-4): ~0.2 µg/mL; CD137 expression on ILT2-positive primary NK cells [23]: 2 fold; CD137 expression on NK cells of urothelial cancer patients with HLA-A2-expressing B cells [23]: > 2 fold
